For the data set, the target named is PriA (Escherichia coli, UniProt P17888 1-732). The following applies: protein: recombinant; tags: N-terminal His; label: 5'-32P on 3L-98 (strand 2); fork 1:2 1:3; ssDNA lagging arm (strand 2).

B1: Fork 1 (structured_DNA)
DNA 1: GCAAGCCTTCTACAGGTCGACCGTCCATGGCGACTCGAGACCGCAATACGGATAAGGGCTGAGCACGCCGACGAACATTCACCACGCCAGACCACGTA
DNA 2: GACTATCTACGTCCGAGGCTCGCGCCGCAGACTCATTTAGCCCTTATCCGTATTGCGGTCTCGAGTCGCCATGGACGGTCGACCTGTAGAAGGCTTGC
DNA 3: TACGTGGTCTGGCGTGGTGAATGTTCGTCGGCGTGCTC
In the case of B1, the binding signal worked out at 91.9 ± 4.1 % fork shifted.
